Laboratory results reported in US20210371491A1 (ALBERT LUDWIGS UNIVERSITAET FREIBURG, published 2021).

B1: CAR28, anti-PSMA CAR with CD28 co-stimulatory domain (scFv D7) (other)
chain: MDFQVQIFSFLLISASVIMSRMAQVQLQQSGAELVEPGASVKLSCKASGYTFTYFDINWLRQRPEQGLEWIGGISPGDGNTNYNENFKGKATLTIDKSSTTAYIQLSRLTSEDSAVYFCARDGNFPYYAMDSWGQGTSVTVSSAKTTPKLGGGGSGGGGSGGGGSARVDIELTQSPLSLPVILGDQASISCRSSQSLVHSNGNTYLHWFLQKPGQSPKLLIYTVSNRFSGVPDRFSGSGSGTDFTLKISRVEAEDLGVYFCSQSTHVPTFGGGTKLEIKRSDPAEPKSPDKTHTCPPCPAPPVAGPSVFLFPPKPKDTLMIARTPEVTCVVVDVSHEDPEVKFNWYVDGVEVHNAKTKPREEQYNSTYRVVSVLTVLHQDWLNGKEYKCKVSNKALPAPIEKTISKAKGQPREPQVYTLPPSRDELTKNQVSLTCLVKGFYPSDIAVEWESNGQPENNYKTTPPVLDSDGSFFLYSKLTVDKSRWQQGNVFSCSVMHEALHNHYTQKSLSLSPGKKDPKFWVLVVVGGVLACYSLLVTVAFIIFWVRSKRSRLLHSDYMNMTPRRPGPTRKHYQAYAAARDFAAYRSLRVKFSRSADAPAYQQGQNQLYNELNLGRREEYDVLDKRRGRDPEMGGKPRRKNPQEGLYNELQKDKMAEAYSEIGMKGERRRGKGHDGLYQGLSTATKDTYDALHMQALPPR
B2: CAR41, anti-PSMA CAR with 4-1BB co-stimulatory domain (scFv D7) (other)
chain: MDFQVQIFSFLLISASVIMSRMAQVQLQQSGAELVEPGASVKLSCKASGYTFTYFDINWLRQRPEQGLEWIGGISPGDGNTNYNENFKGKATLTIDKSSTTAYIQLSRLTSEDSAVYFCARDGNFPYYAMDSWGQGTSVTVSSAKTTPKLGGGGSGGGGSGGGGSARVDIELTQSPLSLPVILGDQASISCRSSQSLVHSNGNTYLHWFLQKPGQSPKLLIYTVSNRFSGVPDRFSGSGSGTDFTLKISRVEAEDLGVYFCSQSTHVPTFGGGTKLEIKRAAALPAEPKSPDKTHTCPPCPAPPVAGPSVFLFPPKPKDTLMIARTPEVTCVVVDVSHEDPEVKFNWYVDGVEVHNAKTKPREEQYNSTYRVVSVLTVLHQDWLNGKEYKCKVSNKALPAPIEKTISKAKGQPREPQVYTLPPSRDELTKNQVSLTCLVKGFYPSDIAVEWESNGQPENNYKTTPPVLDSDGSFFLYSKLTVDKSRWQQGNVFSCSVMHEALHNHYTQKSLSSLSPGKKIYIWAPLAGTCGVLLLSLVITLYCKRGRKKLLYIFKQPFMRPVQTTQEEDGCSCRFPEEEEGGCELLRVKFSRSADAPAYQQGQNQLYNELNLGRREEYDVLDKRRGRDPEMGGKPRRKNPQEGLYNELQKDKMAEAYSEIGMKGERRRGKGHDGLYQGLSTATKDTYDALHMQALPPR

Molecular target: prostate specific membrane antigen (PSMA) (UniProt Q04609 1-750, limits assumed)
Test: cell-based or functional assay

Sequence of prostate specific membrane antigen (PSMA) (Q04609 whole entry, form in doubt): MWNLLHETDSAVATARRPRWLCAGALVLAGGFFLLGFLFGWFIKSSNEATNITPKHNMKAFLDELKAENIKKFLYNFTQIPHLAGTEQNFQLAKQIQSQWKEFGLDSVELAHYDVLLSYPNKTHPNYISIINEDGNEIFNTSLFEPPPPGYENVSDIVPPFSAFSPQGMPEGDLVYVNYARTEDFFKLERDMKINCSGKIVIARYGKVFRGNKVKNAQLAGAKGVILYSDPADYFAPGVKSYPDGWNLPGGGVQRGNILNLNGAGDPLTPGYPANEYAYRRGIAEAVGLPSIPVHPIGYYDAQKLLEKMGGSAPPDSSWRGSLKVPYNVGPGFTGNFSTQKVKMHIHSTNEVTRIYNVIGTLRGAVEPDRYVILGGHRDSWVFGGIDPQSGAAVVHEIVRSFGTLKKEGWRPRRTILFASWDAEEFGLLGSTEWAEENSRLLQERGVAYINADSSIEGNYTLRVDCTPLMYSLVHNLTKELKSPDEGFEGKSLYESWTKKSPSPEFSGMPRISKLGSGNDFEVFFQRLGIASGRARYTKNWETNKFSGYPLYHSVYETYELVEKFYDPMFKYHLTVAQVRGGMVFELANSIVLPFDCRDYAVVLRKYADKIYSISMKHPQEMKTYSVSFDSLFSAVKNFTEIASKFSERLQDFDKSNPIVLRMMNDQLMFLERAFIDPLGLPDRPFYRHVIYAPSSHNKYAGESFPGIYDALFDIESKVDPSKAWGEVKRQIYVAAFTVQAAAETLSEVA

Binder | cytotoxicity (XTT assay), PSMA expressing cells eliminated at E:T ratio 1:1 [%] | cytotoxicity (XTT assay), target cells eliminated at E:T ratio 1:4, 48 h co-culture with C4-2 cells [%]
B1 | ≤ 90 | ~90
B2 | ≤ 90 | –
